Reference: the RNAGym collection of RNA variant scans (doi:10.1073/pnas.2313332121)
For some of these results: Variants at the floor of the assay were thinned out.

B1: TPR t1 (parent)
chain: GACCAAUCUGCCCUCAGAGCUCGAGAACAUCUUCGGAUGCAGAGGAGGCAGGCUUCGGUGGCGCGAUAGCGCCAACGUCCUCAACCUCCAAUGCAUCCCACCACAUGAUGAUGCCUGAAGAGCCUUGGUUUUUUG
B2: TPR 5TU (parent)
chain: GGAUCUUCUCGAUCUAACAAAAAAGACAAAUCUGCCACAAAGCUUGAGAGCAUCUUCGGAUGCAGAGGCGGCAGCCUUCGGUGGCGCGAUAGCGCCAACGUUCUCAACUAUGACACGCAAAACGCGUGCUCCGUUGAAUGGAGUUUAUCAUG

Variants of: B1
Assay: polymerase ribozyme fitness, log enrichment relative to wild type (log ratio); higher = more active; in vitro selection for triplet polymerase activity
Summary of the method: (§1)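 In triplicate, a single round of in vitro selection was run on each mutant library, PCR-built and transcribed, covering one subunit of a heterodimeric triplet polymerase ribozyme. Frozen incubation at −7 °C followed annealing with a biotinylated primer, partner subunit and triplets, and extended constructs were then gel-excised, streptavidin-captured and taken through RT-PCR. Fitness is the logarithm of genotype enrichment over wild-type enrichment, from inverse-variance-weighted replicate averages of Illumina-sequenced inputs and outputs. […] only genotypes with ≥10 input reads and ≥1 read per output were kept.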

GACCAAUCUGCCCUCAGAGCUCGAGAACAUCUUCGGAUGCAGAGGAGGCAGGCUUCGGUGGCGCGAUAGCGCCAACGUCCUCAACCUCCAAUGCAUCCCACCACAUGAUGAUGCCUGAAGAGCCUUGGAUUUUUC [U129A G135C] and GACCAAUCUGCCCUCAGAGCUCGAGAACAUCUUCGGAUGCAGAGGAGGCAGGCUUCGGUGGCGCGAUAGCGCCAACGUCCUCAACCUCCAAUGCAUCCCACCACAUGAUGAUGCCUGAAGAGCCUUGGUUCAUUG [U131C U132A] are within 0.2 log units of each other in “polymerase ribozyme fitness (log ratio)” value: -0.497 for the first, -0.543 for the second.

GACCAAUCUGCCCUCAGAGCUCGAGAACAUCUUCGGAUGCAGAGGAGGCAGGCUUCGGUGGCGCGAUAGCGCCAACGUCCUCAACCUCCAAUGCAUCCCACCACAUGAUGAUGCCUGAAGAGCCUUGGUUUUAUG [U133A] and GACCAAUCUGCCCUCAGAGCUCGAGAACAUCUUCGGAUGCAGAGGAGGCAGGCUUCGGUGGCGCGAUAGCGCCAACGUCCUCAACCUCCAAUGCAUCCCACCACAUGAUGAUGCCUGAAGAGCCUUGGUUUUGUG [U133G] are within 0.2 log units of each other in “polymerase ribozyme fitness (log ratio)” value: -0.252 for the first, -0.279 for the second.

GACCAAUCUGCCCUCAGAGCUCGAGAACAUCUUCGGAUGCAGAGGAGGCAGGCUUCGGUGGCGCGAUAGCGCCAACGUCCUCAACCUCCAAUGCAUCCCACCACAUGAUGAUGCCUGAAGAGCCUUGGUUUUCUG [U133C] and GACCAAUCUGCCCUCAGAGCUCGAGAACAUCUUCGGAUGCAGAGGAGGCAGGCUUCGGUGGCGCGAUAGCGCCAACGUCCUCAACCUCCAAUGCAUCCCACCACAUGAUGAUGCCUGAAGAGCCUUGGUUUUGUC [U133G G135C] are within 0.2 log units of each other in “polymerase ribozyme fitness (log ratio)” value: 0.332 for the first, 0.463 for the second.

Compared with GACCAAUCUGCCCUCAGAGCUCGAGAACAUCUUCGGAUGCAGAGGAGGCAGGCUUCGGUGGCGCGAUAGCGCCAACGUCCUCAACCUCCAAUGCAUCCCACCACAUGAUGAUGCCUGAAGAGCCUUGGCUUUUUG [U129C], GACCAAUCUGCCCUCAGAGCUCGAGAACAUCUUCGGAUGCAGAGGAGGCAGGCUUCGGUGGCGCGAUAGCGCCAACGUCCUCAACCUCCAAUGCAUCCCACCACAUGAUGAUGCCUGAAGAGCCUUGGGUUUUUG [U129G] is lower in “polymerase ribozyme fitness (log ratio)” value: -0.185 for the first, -1.1 for the second.

Compared with GACCAAUCUGCCCUCAGAGCUCGAGAACAUCUUCGGAUGCAGAGGAGGCAGGCUUCGGUGGCGCGAUAGCGCCAACGUCCUCAACCUCCAAUGCAUCCCACCACAUGAUGAUGCCUGAAGAGCCUUGGAUUUUUG [U129A], GACCAAUCUGCCCUCAGAGCUCGAGAACAUCUUCGGAUGCAGAGGAGGCAGGCUUCGGUGGCGCGAUAGCGCCAACGUCCUCAACCUCCAAUGCAUCCCACCACAUGAUGAUGCCUGAAGAGCCUUGGUGAUUUG [U130G U131A] is higher in “polymerase ribozyme fitness (log ratio)” value: -1.11 for the first, -0.66 for the second.

First: GACCAAUCUGCCCUCAGAGCUCGAGAACAUCUUCGGAUGCAGAGGAGGCAGGCUUCGGUGGCGCGAUAGCGCCAACGUCCUCAACCUCCAAUGCAUCCCACCACAUGAUGAUGCCUGAAGAGCCUUGCUCUUUUG [G128C U130C]
Second: GACCAAUCUGCCCUCAGAGCUCGAGAACAUCUUCGGAUGCAGAGGAGGCAGGCUUCGGUGGCGCGAUAGCGCCAACGUCCUCAACCUCCAAUGCAUCCCACCACAUGAUGAUGCCUGAAGAGCCUUGGGAUUUUG [U129G U130A]
The “polymerase ribozyme fitness (log ratio)” value of the first is higher: -1.33 for the first, -2.04 for the second.

Variants of: B2
Assay: as above
Summary of the method: as §1

First: GGCUCUUCUCGAUCUAACAAAAAAGACAAAUCUGCCACAAAGCUUGGGAGCGUCUUCGGAUGCAGAGGCGGCAGCCUUCGGUGGCGUGAUAGCGCUAAUGUUCUCAACUAUGACACGCAAAACACGUGCUCCGUUGAAUGGAGUUUAUCAUG [A3C A47G A52G C87U C96U C99U G124A]
Second: GGCUCUUCUCGAUCUAACAAAAAAGACAAAUCUGCCACAAAGCUUGUGAGCAUCUUCGGAUGCAGAGGCGGCAGCCUUCGGUGGCGCGAUAGCGCCAACGUUCUCAACUAUGACACGCAAAACGCGUGCUCCGUUGAAUGGAGUUUAUCAUG [A3C A47U]
The “polymerase ribozyme fitness (log ratio)” value of the first is lower: -4.19 for the first, -0.813 for the second.

First: GGCUCUUCUCGAUCUAACAAAAAAGACAAAUCUGCCACAAAGCUUGAGAGCAUCUUCUGAUGCAGAGGCGGCAGCUUUCGGUGAUGCGAUAGCACCAACGUUCUCAACUAUGACACGCAAAACGCGUGCUCCGUUGAAUGGAGUUUAUCAUG [A3C G58U C76U G84A C85U G94A]
Second: GGCUCUUCUCGAUCUAACAAAAAAGACAAAUCUGCCACAAAGCUUGAGAGCAUCUUCGGAUGCAGAGGCGGCAGCCUUCGGUGGUGCGAUAGCGCCAACGUUCUCAACUAUGACACGCAAAACGCGUGCUCCGUUCAAUGGAGUUUAUCAUG [A3C C85U G136C]
The “polymerase ribozyme fitness (log ratio)” value of the first is higher: -2.53 for the first, -3.76 for the second.

GGCUCUUCUCGAUCUAACAAAAUAGACAAAUCUGCCACAACGUUUGAGAGCAUCUUCGGAAGCCGAGGCGGCAGCCUUCGGUGGCGCGAUAGCGCUAACGUUCUCACCUAUGACGCGCAAAACGCGUGCUCCGUUGAAUGGAGUUUAUCAUG [A3C A23U A41C C43U U61A A64C C96U A107C A115G] and GGCUAUUCUCGAUCUAACAAAAAAGACAAAUCUGCCACAAAGCUUGAGAGCCUCUUCGGAUGCAUAGGCGGCAGCCUUCGGUGGCGCGAUAGCGCCAAGGUUCUCAACUAUGACACGCAAAACGCGUGCUCCCUUGAAUGGAGUUUAUCAUG [A3C C5A A52C G65U C99G G133C] cannot be ordered by “polymerase ribozyme fitness (log ratio)” value: at most -4.2 for the first, at most -4.2 for the second.

In the case of GGCUCUUCUCGAUCUGACAAAAAUGACAAAUCUGCCACAAAGCUUGAUAGCAUCUUCGGAUGCAGAGGCGGCAUCCUUCGGUAGCGCGAUAGCGCCAACGUUCUCACCUAUGACACGCAAAACGCGUGCACCGUUGAAUGGAGUUUAUCAUG [A3C A16G A24U G48U G74U G83A A107C U130A], the “polymerase ribozyme fitness (log ratio)” value is reported as at most -4.2.
